What is called Kd is a measure of binding affinity in units of concentration. The low end stands for higher affinity, the high end for lower affinity.

Holding throughout (assay): BLI
In general terms: Biolayer interferometry detects binding as a change in optical thickness at a sensor tip.

Test [1] deals with T1, CCL8_HUMAN (human, UniProt P80075 24-99).
T1 chain: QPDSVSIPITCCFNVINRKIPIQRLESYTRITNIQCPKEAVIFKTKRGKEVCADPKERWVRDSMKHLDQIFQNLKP

Test [2] addresses T2, CCL17_HUMAN (human, UniProt Q92583 24-94).
T2 chain: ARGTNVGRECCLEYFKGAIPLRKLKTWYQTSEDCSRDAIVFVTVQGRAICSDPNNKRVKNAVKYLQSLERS

Test [3] addresses T3, CCL3_HUMAN (human, UniProt P10147 24-92).
T3 chain: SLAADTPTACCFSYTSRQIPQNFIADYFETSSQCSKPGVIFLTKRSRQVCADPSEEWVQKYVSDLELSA

The target of test [4] is T4, CCL24_HUMAN (human, UniProt O00175 27-104).
T4 chain: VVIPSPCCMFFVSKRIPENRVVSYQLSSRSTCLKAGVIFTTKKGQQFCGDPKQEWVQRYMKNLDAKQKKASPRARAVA

For test [5], the target named is T5, CCL19_HUMAN (human, UniProt Q99731 22-98).
T5 chain: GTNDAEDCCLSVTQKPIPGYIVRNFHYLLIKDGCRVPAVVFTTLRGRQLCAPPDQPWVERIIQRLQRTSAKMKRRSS

For test [6], the target named is T6, CCL23_HUMAN (human, UniProt P55773 22-120).
T6 chain: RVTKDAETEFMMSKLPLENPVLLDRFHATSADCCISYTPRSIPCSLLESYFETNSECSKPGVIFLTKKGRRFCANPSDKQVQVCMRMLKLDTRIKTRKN

The target of test [7] is T7, CCL21_HUMAN (human, UniProt O00585 24-134).
T7 chain: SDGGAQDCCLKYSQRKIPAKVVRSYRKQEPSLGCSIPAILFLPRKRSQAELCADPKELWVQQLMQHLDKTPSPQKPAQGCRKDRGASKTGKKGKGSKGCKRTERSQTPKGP

Test [8] concerns the target T8, CCL5_HUMAN (human, UniProt P13501 24-91).
T8 chain: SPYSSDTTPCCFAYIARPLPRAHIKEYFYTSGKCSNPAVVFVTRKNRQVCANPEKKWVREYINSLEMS

In test [9] the target is CCL7_HUMAN (human, UniProt P80098 24-99).
Test [10] concerns the target T9, CCL27_HUMAN (human, UniProt Q9Y4X3 25-112).
T9 chain: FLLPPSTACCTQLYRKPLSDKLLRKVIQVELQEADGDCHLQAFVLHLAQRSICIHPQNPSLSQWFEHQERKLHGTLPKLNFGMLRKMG

The target of test [11] is T10, CCL15_HUMAN (human, UniProt Q16663 22-113).
T10 chain: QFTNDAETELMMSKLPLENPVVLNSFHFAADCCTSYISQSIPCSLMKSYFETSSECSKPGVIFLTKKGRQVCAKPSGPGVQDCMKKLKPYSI

The target in test [12] is CCL11_HUMAN (human, UniProt P51671 24-97).
Test [13] deals with T11, CCL18_HUMAN (human, UniProt P55774 21-89).
T11 chain: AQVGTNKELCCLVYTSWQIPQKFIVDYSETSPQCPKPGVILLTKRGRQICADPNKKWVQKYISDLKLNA

The target in test [14] is CCL13_HUMAN (human, UniProt Q99616 24-98).
The target of test [15] is T12, CCL14_HUMAN (human, UniProt Q16627 22-93).
T12 chain: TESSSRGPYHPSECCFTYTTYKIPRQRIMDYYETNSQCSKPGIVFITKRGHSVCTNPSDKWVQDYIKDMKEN

For test [16], the target named is T13, CCL3L1_HUMAN (human, UniProt P16619 24-93).
T13 chain: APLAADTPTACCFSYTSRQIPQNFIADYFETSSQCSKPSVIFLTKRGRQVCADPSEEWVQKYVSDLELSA

Test [17] concerns the target T14, CCL4_HUMAN (human, UniProt P13236 24-92).
T14 chain: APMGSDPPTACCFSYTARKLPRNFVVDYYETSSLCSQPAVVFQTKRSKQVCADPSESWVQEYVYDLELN

Test [18] deals with CXCL1_HUMAN (human, UniProt P09341 35-107).
Test [19] has as its target CXCL8_HUMAN (human, UniProt P10145 28-99).

Sequence of CCL13_HUMAN (Q99616 24-98): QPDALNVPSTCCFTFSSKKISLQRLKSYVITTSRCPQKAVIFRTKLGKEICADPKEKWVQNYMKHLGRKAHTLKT
Sequence of CXCL8_HUMAN (P10145 28-99): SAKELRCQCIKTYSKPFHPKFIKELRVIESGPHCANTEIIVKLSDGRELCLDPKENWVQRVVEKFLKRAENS
Sequence of CCL11_HUMAN (P51671 24-97): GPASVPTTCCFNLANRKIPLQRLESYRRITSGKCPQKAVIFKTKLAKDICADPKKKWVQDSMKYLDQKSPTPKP
Sequence of CCL7_HUMAN (P80098 24-99): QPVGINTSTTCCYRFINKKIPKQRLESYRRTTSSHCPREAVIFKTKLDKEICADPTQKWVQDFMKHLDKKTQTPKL
Sequence of CXCL1_HUMAN (P09341 35-107): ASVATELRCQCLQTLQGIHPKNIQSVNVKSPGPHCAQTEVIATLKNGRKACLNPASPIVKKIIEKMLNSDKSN

B1: P1243:G4S:P1156 (designed binder)
chain: RNHTEDNSTEYYDYEEARCACPARHLNNTNGTVLKLLGCHYFCNGTLCTAPDGYPCYNLTAQQVRTLTTYPNTSCAVGVCMKGTCVKNGTMEQCFKTPGGGGSADDDNELFTVQYCGMNCTKDEGGTWTGCTGKKEGCKCYHESGKNYGLCLSTEYTDFSQYGNPSDSEIEAAKPKRSDTLSH
Take B1: the Kd was 381 nM in [1]; 3.51 nM in test [2]; 16.4 nM in test [3]; 16.4 nM in test [4]; 2.92 nM in [5]; 0.632 nM in test [6]. Besides, the Kd was determined as 53.8 nM in test [7]; 8.95 nM in test [8]; 49 nM in test [9]; 24.4 nM in [10]; 8.71 nM in test [11]; 19.7 nM in test [12]. Also, the Kd in test [13] turned out to be 0.543 nM; in [14], 1.33 nM; in test [15], 1.99 nM; in [16], 4.06 nM; in [17] it was 19.4 nM; in test [18], 17.4 nM. In test [19], the Kd is 7.63 nM.

The values above are taken from patent US20200247855A1 (published 2020).
